Laboratory results published in article PMC13062060, “Calcium activation mechanism of a noncanonical aromatic L-amino acid decarboxylase from psilocybin mushroom Psilocybe cubensis” (Communications Biology, 2026).

Test system: N[C@@H](Cc1ccccc1)C(=O)O
Experiment: LC-MS of phenylethylamine formed, Michaelis-Menten fit
Assay type: biochemical, Psilocybe cubensis
Details: 30 mM calcium acetate (activating), 50 mM Tris pH 8.0, room temperature, brackets 95% CI, also measured in 30 mM NaCl
From the text: LC-MS of phenylethylamine formed, Michaelis-Menten fit on PcncAAAD (noncanonical aromatic L-amino acid decarboxylase)

Row | Substance | Km | kcat [s⁻¹]
1 | PcncAAAD (noncanonical aromatic L-amino acid decarboxylase) (Psilocybe cubensis; D825A/D931A/E824A) | 174 [105–287] µM | 0.41
2 | PcncAAAD (noncanonical aromatic L-amino acid decarboxylase) (Psilocybe cubensis) | 88 [49–154] µM | 0.51
3 | PcncAAAD (noncanonical aromatic L-amino acid decarboxylase) (Psilocybe cubensis; D971A/D973A/E637A/E638A/E972A) | 513 [319–839] µM | 0.073
4 | PcncAAAD (noncanonical aromatic L-amino acid decarboxylase) (Psilocybe cubensis; D825A/D931A/D971A/D973A/E637A/E638A/E824A/E972A) | 586 [359–979] µM | 0.044
